Test results as given in the supplement of paper PMC12338614.
± gives the uncertainty stated by the source.

B1: library; numbered along this chain (parent)
chain: MEVVDPQQLGMFTEGELMSVGMDTFIHRIDSTEVIYQPRRKRAKLIGKYLMGDLLGEGSYGKVKEVLDSETLCRRAVKILKKKKLRRIPNGEANVKKEIQLLRRLRHKNVIQLVDVLYNEEKQKMYMVMEYCVCGMQEMLDSVPEKRFPVCQAHGYFCQLIDGLEYLHSQGIVHKDIKPGNLLLTTGGTLKISDLGVAEALHPFAADDTCRTSQGSPAFQPPEIANGLDTFSGFKVDIWSAGVTLYNITTGLYPFEGDNIYKLFENIGKGSYAIPGDCGPPLSDLLKGMLEYEPAKRFSIRQIRQHSWFRKKHPPAEAPVPIPPSPDTKDRWRSMTVVPYLEDLHGADEDEDLFDIEDDIIYTQDFTVPGQVPEEEASHNGQRRGLPKAVCMNGTEAAQLSTKSRAEGRAPNPARKACSASSKIRRLSACKQQ

Variants of: B1
Experiment: STK11 functional score (HeLa growth suppression), rescaled enrichment; synonymous median = 1, nonsense median = 0 (normalised score)
Conditions: with HeLa; variant type: missense
Method: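 Deep mutational scan (TileSeq/POPCode codon randomisation) of full-length codon-optimised STK11 cDNA integrated at a Bxb1 landing pad (AAVS1) in HeLa cells. Restoring functional STK11 suppresses HeLa proliferation. Variant frequencies were measured by NGS before and after about two weeks of growth. The error-corrected enrichment log-ratio was rescaled so that synonymous median = 1 and nonsense median = 0, scores above 1 were compressed, and codon-level and three biological replicate scores were combined; error is the bootstrapped standard error. Scale: synonymous median = 1, nonsense median = 0; below 0.5 = damaging.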

Point of comparison: MEVVDPQQLGMFTEGELMSVGMDTFIHRIDSTEVIYQPRRKRAKLIGKYLMGDLLGEGSYGKVKEVLDSETLCRRAVKILKKKKLRRIPVGEANVKKEIQLLRRLRHKNVIQLVDVLYNEEKQKMYMVMEYCVCGMQEMLDSVPEKRFPVCQAHGYFCQLIDGLEYLHSQGIVHKDIKPGNLLLTTGGTLKISDLGVAEALHPFAADDTCRTSQGSPAFQPPEIANGLDTFSGFKVDIWSAGVTLYNITTGLYPFEGDNIYKLFENIGKGSYAIPGDCGPPLSDLLKGMLEYEPAKRFSIRQIRQHSWFRKKHPPAEAPVPIPPSPDTKDRWRSMTVVPYLEDLHGADEDEDLFDIEDDIIYTQDFTVPGQVPEEEASHNGQRRGLPKAVCMNGTEAAQLSTKSRAEGRAPNPARKACSASSKIRRLSACKQQ [N90V], STK11 functional score 1.17 ± 0.3. Against it:
- MEVVDPQQLGMFTEGELMSVGMDTFIHRIDSTEVIYQPRRKRAKLIGKYLMGDLLGEGQYGKVKEVLDSETLCRRAVKILKKKKLRRIPNGEANVKKEIQLLRRLRHKNVIQLVDVLYNEEKQKMYMVMEYCVCGMQEMLDSVPEKRFPVCQAHGYFCQLIDGLEYLHSQGIVHKDIKPGNLLLTTGGTLKISDLGVAEALHPFAADDTCRTSQGSPAFQPPEIANGLDTFSGFKVDIWSAGVTLYNITTGLYPFEGDNIYKLFENIGKGSYAIPGDCGPPLSDLLKGMLEYEPAKRFSIRQIRQHSWFRKKHPPAEAPVPIPPSPDTKDRWRSMTVVPYLEDLHGADEDEDLFDIEDDIIYTQDFTVPGQVPEEEASHNGQRRGLPKAVCMNGTEAAQLSTKSRAEGRAPNPARKACSASSKIRRLSACKQQ [S59Q] — within error, 1.63 ± 0.19
- MEVVDPQQLGMFTEGELMSVGMDTFIHRIDSTEVIYQPRRKRAKLIGKYLMGDLLGEGSYGKVKEVLDSETLCRRAVKISKKKKLRRIPNGEANVKKEIQLLRRLRHKNVIQLVDVLYNEEKQKMYMVMEYCVCGMQEMLDSVPEKRFPVCQAHGYFCQLIDGLEYLHSQGIVHKDIKPGNLLLTTGGTLKISDLGVAEALHPFAADDTCRTSQGSPAFQPPEIANGLDTFSGFKVDIWSAGVTLYNITTGLYPFEGDNIYKLFENIGKGSYAIPGDCGPPLSDLLKGMLEYEPAKRFSIRQIRQHSWFRKKHPPAEAPVPIPPSPDTKDRWRSMTVVPYLEDLHGADEDEDLFDIEDDIIYTQDFTVPGQVPEEEASHNGQRRGLPKAVCMNGTEAAQLSTKSRAEGRAPNPARKACSASSKIRRLSACKQQ [L80S] — lower, 0.479 ± 0.1
- MEVVDPQQLGMFTEGELMSVGMDTFIHRIDSTEVIYQPRRKRAKLIGKYLMGDLLGEGSYGKVKEVLDSETLCRRAVKILKKKKLRRIPNGEANVKKEIQLLRRLRHKNVIMLVDVLYNEEKQKMYMVMEYCVCGMQEMLDSVPEKRFPVCQAHGYFCQLIDGLEYLHSQGIVHKDIKPGNLLLTTGGTLKISDLGVAEALHPFAADDTCRTSQGSPAFQPPEIANGLDTFSGFKVDIWSAGVTLYNITTGLYPFEGDNIYKLFENIGKGSYAIPGDCGPPLSDLLKGMLEYEPAKRFSIRQIRQHSWFRKKHPPAEAPVPIPPSPDTKDRWRSMTVVPYLEDLHGADEDEDLFDIEDDIIYTQDFTVPGQVPEEEASHNGQRRGLPKAVCMNGTEAAQLSTKSRAEGRAPNPARKACSASSKIRRLSACKQQ [Q112M] — within error, 0.897 ± 0.28
- MEVVDPQQLGMFTEGELMSVGMDTFIHRIDSTEVIYQPRRKRAKLIGKYLMGDLLGEGSYGKVKEVLDSETLCRRAVKILKKKKLRRIPNGEANVKKEIQLLRRLRHKNVIQLVDVLYNEEKQKMYMVMEYCVCGMQEMLDSVPEKRFPVCQAHGYFCQLIDGLEYLHSQGIVHKDIKPGNLLLTTGGTLKISDLGVAEALHPFAADDTCRTSQGSPAFQPPEIANGLDTFSGFKVDIWSAGVTLYNITTGLYPFEGDNIYKLFENIGKGSYAIPGDCGPPLSDLLKGMLEYEPAKRFSIRQIRQHSWFRKKHPPAEAPVPIPPSPDTKDRWRSMTVVPYLEDLHGADEDEDLFDIEDDIIYTQDFTVPGQVPEEEASHNGQRRGLPKAVCMNGTEAAQLSTKSRAEGRAPNPARKACSASSKIRRLSRCKQQ [A429R] — within error, 1.5 ± 0.17
- MEVVDPQQLGMFTEGELMSVGMDTFIHRIDSTEVIYQPRRKRAKLIGKYLMGDLLGEGSYGKVKEVLDSETLCCRAVKILKKKKLRRIPNGEANVKKEIQLLRRLRHKNVIQLVDVLYNEEKQKMYMVMEYCVCGMQEMLDSVPEKRFPVCQAHGYFCQLIDGLEYLHSQGIVHKDIKPGNLLLTTGGTLKISDLGVAEALHPFAADDTCRTSQGSPAFQPPEIANGLDTFSGFKVDIWSAGVTLYNITTGLYPFEGDNIYKLFENIGKGSYAIPGDCGPPLSDLLKGMLEYEPAKRFSIRQIRQHSWFRKKHPPAEAPVPIPPSPDTKDRWRSMTVVPYLEDLHGADEDEDLFDIEDDIIYTQDFTVPGQVPEEEASHNGQRRGLPKAVCMNGTEAAQLSTKSRAEGRAPNPARKACSASSKIRRLSACKQQ [R74C] — within error, 1.11 ± 0.25
- MEVVDPQQLGMFTEGELMSVGMDTFIHRIDSTEVIYQPRRKRAKLIGKYLMGDLLGEGSYGKVKEVLDSETLCRRAVKILKKKKLRRIPNGEANVKKEIQLLRRLRHKNVIQLVDVLYNEEKQKMYMVMEYCVCGMQEMLDSVPEKRFPVCQAHGYFCQLIDGLEYLHSQGIVHKDIKPGNLLLTTGGTLKISDLGVAEALHPFAADDTCRTSQGSPAFQPPEIANGLDTFSGFKVDIWSAGVTLYNITTGLYPFEGDNIYKLFENIGKGSYAIPGDCGPPLSDLLKGMLEYEPAKRFSIRQIRQHSWFRKKHPPAEAPVPIPPSPDTKDRWRSMTVVPYLEDLHGLDEDEDLFDIEDDIIYTQDFTVPGQVPEEEASHNGQRRGLPKAVCMNGTEAAQLSTKSRAEGRAPNPARKACSASSKIRRLSACKQQ [A347L] — within error, 1.46 ± 0.16
